According to PMC2588524 (Nucleic Acids Research, 2008):

Legend:
[1] = target: T1, C-terminal domain of mouse Dnmt3a (residues 608-908) (mouse, UniProt O88508 608-908); assay: AUC
[2] = target: T1, C-terminal domain of mouse Dnmt3a …; assay: co-purification

T1 sequence (O88508 608-908): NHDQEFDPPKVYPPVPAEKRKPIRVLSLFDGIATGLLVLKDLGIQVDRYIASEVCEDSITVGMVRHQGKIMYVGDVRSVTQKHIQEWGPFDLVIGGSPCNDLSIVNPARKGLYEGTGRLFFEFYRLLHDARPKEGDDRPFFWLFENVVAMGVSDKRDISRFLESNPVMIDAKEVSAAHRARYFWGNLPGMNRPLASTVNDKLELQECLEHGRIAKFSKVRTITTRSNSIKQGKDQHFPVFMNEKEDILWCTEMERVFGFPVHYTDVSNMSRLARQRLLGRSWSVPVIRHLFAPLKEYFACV

B1: C-terminal domain of mouse Dnmt3L (residues 208-421) (domain or fragment, UniProt Q9CWR8 208-421, looked up)
chain: GPMEIYKTVSAWKRQPVRVLSLFRNIDKVLKSLGFLESGSGSGGGTLKYVEDVTNVVRRDVEKWGPFDLVYGSTQPLGSSCDRCPGWYMFQFHRILQYALPRQESQRPFFWIFMDNLLLTEDDQETTTRFLQTEAVTLQDVRGRDYQNAMRVWSNIPGLKSKHAPLTPKEEEYLQAQVRSRSKLDAPKVDLLVKNCLLPLREYFKYFSQNSLPL
For B1, the “stoichiometry N” value [1] was 1 2:2 (Dnmt3a-C:Dnmt3L-C) and the “stoichiometry N” value [2] was 1.
